# Test results taken from patent CN113501876A (WEST CHINA HOSPITAL SICHUAN UNIV, dated 2021).
# T1: 蛋白激酶p38δ (p38δ-2×Strep) (Homo sapiens (Human), UniProt O15264 1-365)
# T1 construct: Expressed from pET28a-p38δ-2×Strep in E. coli BL21(DE3) and purified on MagStrep beads; The tag is placed C-terminal on the strength of the vector name only; Any further vector residues are not described; not shown: 2×Strep tag
# T1 sequence: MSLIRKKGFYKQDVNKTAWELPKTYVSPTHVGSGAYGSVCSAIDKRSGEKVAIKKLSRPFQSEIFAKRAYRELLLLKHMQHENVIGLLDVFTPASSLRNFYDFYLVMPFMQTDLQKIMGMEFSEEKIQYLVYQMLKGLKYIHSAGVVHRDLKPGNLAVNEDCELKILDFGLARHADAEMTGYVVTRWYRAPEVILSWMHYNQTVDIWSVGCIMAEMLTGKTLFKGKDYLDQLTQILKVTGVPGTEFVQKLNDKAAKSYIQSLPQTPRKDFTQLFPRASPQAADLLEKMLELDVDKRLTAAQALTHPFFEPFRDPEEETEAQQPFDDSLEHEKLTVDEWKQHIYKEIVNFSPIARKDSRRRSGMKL
# T2: p38γ (p38γ-2×Strep) (Homo sapiens (Human), UniProt P53778 1-367)
# T2 construct: Expressed from pET28a-p38γ-2×Strep in E. coli; not shown: 2×Strep tag
# T2 sequence: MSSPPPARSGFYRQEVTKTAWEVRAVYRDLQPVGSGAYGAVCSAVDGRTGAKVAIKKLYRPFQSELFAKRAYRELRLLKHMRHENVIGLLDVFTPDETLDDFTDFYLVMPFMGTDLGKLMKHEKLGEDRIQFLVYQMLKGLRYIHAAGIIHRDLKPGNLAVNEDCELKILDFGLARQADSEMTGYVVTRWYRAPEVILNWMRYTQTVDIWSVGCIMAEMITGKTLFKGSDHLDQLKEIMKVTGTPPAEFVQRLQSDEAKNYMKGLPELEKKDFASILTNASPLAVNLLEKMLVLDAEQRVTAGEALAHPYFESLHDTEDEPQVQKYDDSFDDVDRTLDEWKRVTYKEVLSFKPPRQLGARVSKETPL
# B1: 纳米抗体Nb13-1 (VHH)
# VHH: QVQLVESGGALVQPGGSLRLSCAASGWWGQRGWLRWYRQAPGKEREWVCGISLRRNRYSYEDSVKGRFTCSRDDARNTVYLQLNSLKPEDTAVYYCAPLSLLHDEDNHSSNYWGQGTQVTVSS
# notes: Expressed from pET22b-NB-FLAG in E. coli BL21(DE3); It was used as periplasmic extract in several assays; also called 特异性结合蛋白激酶p38δ的纳米抗体; not shown: C-terminal FLAG tag fused in pET22b
# Experiments:
# 蛋白激酶p38δ (p38δ-2×Strep) = biological target: T1, 蛋白激酶p38δ (p38δ-2×Strep); assay: indirect ELISA, p38δ coated, nanobody at 0-6.4 μM, anti-FLAG detection, 4-parameter fit
# p38γ (p38γ-2×Strep) = biological target: T2, p38γ (p38γ-2×Strep); assay: ELISA, p38 proteins coated on the plate, nanobody periplasmic extract, anti-FLAG detection, OD450
binder,measurement,setting,value
B1,Kd,蛋白激酶p38δ (p38δ-2×Strep),1320 nM
same,binding result,p38γ (p38γ-2×Strep),no binding
